Laboratory results as given in patent US20050037969A1 (ARBOR VITA, published 2005).
Ends that are not written are not given here. * marks the point of attachment. Biotin = O=C1N[C@H]2[C@H](CS[C@H]2CCCCC(=O)*)N1

Assays:
Assay in all cases: A/G assays
[1] = target: T1, GST-CASK PDZ domain fusion protein (Homo sapiens, UniProt O14936 486-575)
T1 construct: also called Homo sapiens CASK protein
T1 sequence: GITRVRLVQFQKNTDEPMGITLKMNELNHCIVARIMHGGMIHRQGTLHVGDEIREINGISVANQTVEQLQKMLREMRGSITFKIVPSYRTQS

[2] = target: T2, GST-PTN-4 PDZ domain fusion protein (Homo sapiens (Human), UniProt P29074 517-605)
T2 construct: also called protein-tyrosine phosphatase meg1; not shown: glutathione S-transferase encoded by vector pGEX-3X (Pharmacia)
T2 sequence: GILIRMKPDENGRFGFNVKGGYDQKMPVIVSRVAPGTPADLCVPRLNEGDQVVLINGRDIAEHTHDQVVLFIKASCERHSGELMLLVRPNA

[3] = target: T3, GST-prIL16 fusion protein (PDZ domains 1-2) (Homo sapiens (Human), UniProt Q14005 1111-1324)
T3 construct: also called putative interleukin 16 precursor; not shown: glutathione S-transferase encoded by vector pGEX-3X (Pharmacia)
T3 sequence: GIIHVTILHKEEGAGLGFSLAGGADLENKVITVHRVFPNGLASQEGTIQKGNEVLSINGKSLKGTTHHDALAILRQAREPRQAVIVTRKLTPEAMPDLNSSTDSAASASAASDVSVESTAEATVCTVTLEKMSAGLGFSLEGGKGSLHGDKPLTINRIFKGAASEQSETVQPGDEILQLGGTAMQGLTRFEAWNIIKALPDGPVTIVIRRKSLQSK

[4] = target: T4, GST-cytohesin binding protein PDZ domain fusion protein (Homo sapiens (Human), UniProt O60759 74-165)
T4 construct: also called CBP; not shown: glutathione S-transferase encoded by vector pGEX-3X (Pharmacia)
T4 sequence: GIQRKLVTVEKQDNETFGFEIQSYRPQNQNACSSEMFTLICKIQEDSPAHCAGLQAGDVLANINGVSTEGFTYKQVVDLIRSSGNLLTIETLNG

[5] = target: T5, GST-RGS12 PDZ domain fusion protein (human, UniProt O14924 17-85)
T5 construct: also called human regulator of G-protein signalling 12; not shown: glutathione S-transferase encoded by vector pGEX-3X (Pharmacia)
T5 sequence: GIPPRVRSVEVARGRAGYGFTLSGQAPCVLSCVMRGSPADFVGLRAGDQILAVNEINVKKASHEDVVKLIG

[6] = target: T6, GST-DLG5 (p-dlg) PDZ domain fusion protein (Human, UniProt Q8TDM6 1343-1583)
T6 construct: also called Human discs large protein p-dlg; not shown: glutathione S-transferase encoded by vector pGEX-3X (Pharmacia)
T6 sequence: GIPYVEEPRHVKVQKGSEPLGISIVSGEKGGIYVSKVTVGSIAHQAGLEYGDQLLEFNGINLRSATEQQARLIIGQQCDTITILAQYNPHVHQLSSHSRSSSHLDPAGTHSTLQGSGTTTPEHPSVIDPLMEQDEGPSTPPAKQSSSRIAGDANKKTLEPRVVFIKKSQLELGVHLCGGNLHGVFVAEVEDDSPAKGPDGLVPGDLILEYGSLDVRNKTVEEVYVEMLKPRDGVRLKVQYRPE

[7] = target: T7, GST-TIAM1 PDZ domain fusion protein (Homo sapiens (Human), UniProt Q13009 845-931)
T7 construct: also called TLAM1; T-lymphoma invasion and metastasis inducing protein 1; not shown: glutathione S-transferase encoded by vector pGEX-3X (Pharmacia)

[8] = target: T8, GST-DVL1 PDZ domain fusion protein (human, UniProt O14640 247-339)
T8 construct: also called human dishevelled segment polarity protein homolog; not shown: glutathione S-transferase encoded by vector pGEX-3X (Pharmacia)
T8 sequence: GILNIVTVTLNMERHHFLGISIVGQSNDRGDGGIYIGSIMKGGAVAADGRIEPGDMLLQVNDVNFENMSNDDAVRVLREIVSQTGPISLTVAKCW

[9] = target: T9, GST-KIAA0303 PDZ domain fusion protein (Homo sapiens (Human), UniProt O15021 1138-1228)
T9 construct: also called K303; not shown: glutathione S-transferase encoded by vector pGEX-3X (Pharmacia)
T9 sequence: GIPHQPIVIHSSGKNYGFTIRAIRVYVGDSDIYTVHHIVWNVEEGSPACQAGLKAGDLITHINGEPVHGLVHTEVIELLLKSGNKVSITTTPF

[10] = target: T10, KIAA0807 (PDZ domain)-GST fusion protein (human, UniProt Q6P0Q8 1104-1192)
T10 construct: also called K807; KIAA807; not shown: glutathione S-transferase encoded by vector pGEX-3X (Pharmacia)
T10 sequence: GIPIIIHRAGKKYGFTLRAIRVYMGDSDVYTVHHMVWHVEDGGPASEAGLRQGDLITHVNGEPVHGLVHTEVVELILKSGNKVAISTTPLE

[11] = target: T11, TAX-IP2L PDZ-GST fusion protein (Homo sapiens (Human), UniProt Q8TF64 107-197)
T11 construct: Order of GST and PDZ part and limits not seen in the excerpts
T11 sequence: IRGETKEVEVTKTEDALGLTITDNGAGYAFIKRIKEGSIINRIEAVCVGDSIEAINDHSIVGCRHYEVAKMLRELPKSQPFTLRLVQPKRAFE

[12] = target: T12, MINT3 PDZ-GST fusion protein
T12 construct: Order of GST and PDZ part and limits not seen in the excerpts
T12 chain: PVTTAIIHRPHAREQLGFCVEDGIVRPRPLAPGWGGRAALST

[13] = target: T13, ConEn PDZ-GST fusion protein (Homo sapiens (Human), UniProt Q969H4 193-287)
T13 construct: The label ConEn is not explained in the excerpts
T13 sequence: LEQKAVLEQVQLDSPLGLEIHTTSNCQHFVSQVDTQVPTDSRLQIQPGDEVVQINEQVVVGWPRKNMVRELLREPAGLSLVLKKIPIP

[14] = target: T14, GEF PDZ-GST fusion protein (Homo sapiens (Human), UniProt Q8TEU7 293-400)
T14 construct: The label GEF is not explained in the excerpts
T14 sequence: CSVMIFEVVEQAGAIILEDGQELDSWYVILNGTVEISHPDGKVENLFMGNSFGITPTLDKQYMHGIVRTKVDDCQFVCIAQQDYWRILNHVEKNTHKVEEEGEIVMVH

[15] = target: T15, NOS1 PDZ-GST fusion protein (Homo sapiens (Human), UniProt P29475 11-100)
T15 construct: Order of GST and PDZ part and limits not seen in the excerpts

Measured: binding result

T7 sequence (Q13009 other isoform, or with tags, fused parts or gaps): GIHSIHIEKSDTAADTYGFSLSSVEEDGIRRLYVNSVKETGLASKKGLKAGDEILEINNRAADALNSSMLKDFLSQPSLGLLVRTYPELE
T15 sequence (P29475 11-100 limits assumed): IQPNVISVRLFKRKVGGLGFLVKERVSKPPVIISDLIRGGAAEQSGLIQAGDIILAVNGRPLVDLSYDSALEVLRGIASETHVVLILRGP

Biotin-SPQPDSTDNDDYDDISAA [CD6 C-terminal peptide AA6L, biotinylated]
no binding: all assays above

Biotin-QGDPALQDAGDSSRKEYFI (also called GC) [Glycophorin C C-terminal peptide AA37L, biotinylated]
no binding: all assays above

Biotin-ISGTPTSTMVHGMTSSSSVV [Clasp-2 C-terminal peptide AA2L, biotinylated]
no binding: all assays above

Biotin-ARHRVTSYTSSSVNVSSNL [CDW128A (IL8RA) C-terminal peptide AA29.1L, biotinylated]
no binding: all assays above

Biotin-TSGTGHNQTRALRASESGI (also called CD97 (CD55L)) [CD97 C-terminal peptide AA14L, biotinylated]
no binding: all assays above

Biotin-HKAEIHAQPSDKERLTSDA (also called CD49F (Aform, alpha6)) [CD49F C-terminal peptide AA12L, biotinylated]
no binding: all assays above

Biotin-STNHSIGSTQSTPCSTSSMA (also called CD105 (endoglin)) [CD105 C-terminal peptide AA16L, biotinylated]
no binding: all assays above

B1: CD5 C-terminal peptide AA49L (peptide)
peptide: Biotin-SMQPDNSSDSDYDLHGAQRL
notes: Only the last four residues are seen in the excerpts
no binding: all assays above
